Assays:
Assay in all cases: SPR, Fab over captured mutant LAG-3-Fc
[1] = target: human LAG-3 domain 1-2 Fc fusion, point mutation #79 S159A (human) (UniProt P18627)
[2] = target: human LAG-3 domain 1-2 Fc fusion, point mutation #21 A74S (human) (UniProt P18627)
[3] = target: human LAG-3 domain 1-2 Fc fusion, point mutation #80 R163A (human) (UniProt P18627)
[4] = target: human LAG-3 domain 1-2 Fc fusion, point mutation #7 P49A (human) (UniProt P18627)
[5] = target: human LAG-3 domain 1-2 Fc fusion, point mutation #62 Q121A (human) (UniProt P18627)
[6] = target: human LAG-3 domain 1-2 Fc fusion, chimeric construct #4 (mutated region AA 40-47) (human) (UniProt P18627)
[7] = target: human LAG-3 domain 1-2 Fc fusion, point mutation #43 P96A (human) (UniProt P18627)
[8] = target: human LAG-3 domain 1-2 Fc fusion, point mutation #12 R57A (human) (UniProt P18627)
[9] = target: human LAG-3 domain 1-2 Fc fusion, point mutation #25 H78A (human) (UniProt P18627)
[10] = target: human LAG-3 domain 1-2 Fc fusion, point mutation #24 G77A (human) (UniProt P18627)
[11] = target: human LAG-3 domain 1-2 Fc fusion, point mutation #17 Q66A (human) (UniProt P18627)
[12] = target: human LAG-3 domain 1-2 Fc fusion, point mutation #2 Q41A (human) (UniProt P18627)
[13] = target: human LAG-3 domain 1-2 Fc fusion, chimeric construct #25 (mutated region AA 154-158) (human) (UniProt P18627)
[14] = target: human LAG-3 domain 1-2 Fc fusion, point mutation #68 Q128A (human) (UniProt P18627)
[15] = target: human LAG-3 domain 1-2 Fc fusion, point mutation #16 H65A (human) (UniProt P18627)
[16] = target: human LAG-3 domain 1-2 Fc fusion, point mutation #10 S54A (human) (UniProt P18627)
[17] = target: human LAG-3 domain 1-2 Fc fusion, chimeric construct #6 (mutated region AA 48-55) (human) (UniProt P18627)
[18] = target: human LAG-3 domain 1-2 Fc fusion, point mutation #50 P106A (human) (UniProt P18627)
[19] = target: human LAG-3 domain 1-2 Fc fusion, point mutation #75 R141A (human) (UniProt P18627)
[20] = target: human LAG-3 domain 1-2 Fc fusion, point mutation #31 P84A (human) (UniProt P18627)
[21] = target: human LAG-3 domain 1-2 Fc fusion, point mutation #59 Q117A (human) (UniProt P18627)
[22] = target: human LAG-3 domain 1-2 Fc fusion, point mutation #69 R129A (human) (UniProt P18627)
[23] = target: human LAG-3 domain 1-2 Fc fusion, point mutation #65 R125A (human) (UniProt P18627)
[24] = target: human LAG-3 domain 1-2 Fc fusion, chimeric construct #16 (mutated region AA 98-105) (human) (UniProt P18627)
[25] = target: human LAG-3 domain 1-2 Fc fusion, point mutation #53 L109A (human) (UniProt P18627)
[26] = target: human LAG-3 domain 1-2 Fc fusion, point mutation #54 R110A (human) (UniProt P18627)
[27] = target: human LAG-3 domain 1-2 Fc fusion, point mutation #49 G105A (human) (UniProt P18627)
[28] = target: human LAG-3 domain 1-2 Fc fusion, chimeric construct #27 (mutated region AA 161-166) (human) (UniProt P18627)
[29] = target: human LAG-3 domain 1-2 Fc fusion, chimeric construct #7 (mutated region AA 53-60) (human) (UniProt P18627)
[30] = target: human LAG-3 domain 1-2 Fc fusion, point mutation #20 A73S (human) (UniProt P18627)
[31] = target: human LAG-3 domain 1-2 Fc fusion, point mutation #40 G93A (human) (UniProt P18627)
[32] = target: human LAG-3 domain 1-2 Fc fusion, point mutation #60 P118A (human) (UniProt P18627)
[33] = target: human LAG-3 domain 1-2 Fc fusion, chimeric construct #1 (mutated region AA 23-30) (human) (UniProt P18627)
Chain of human LAG-3 domain 1-2 Fc fusion, chimeric construct #1 (mutated region AA 23-30) (human) (P18627 other isoform, or with tags, fused parts or gaps mutant): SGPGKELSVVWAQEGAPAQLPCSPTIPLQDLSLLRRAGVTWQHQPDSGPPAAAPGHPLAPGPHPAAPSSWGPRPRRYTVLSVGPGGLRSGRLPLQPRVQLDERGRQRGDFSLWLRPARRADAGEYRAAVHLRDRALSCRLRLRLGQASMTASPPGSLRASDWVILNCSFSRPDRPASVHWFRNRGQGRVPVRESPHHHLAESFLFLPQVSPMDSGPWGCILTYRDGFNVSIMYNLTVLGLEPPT

Chain of human LAG-3 domain 1-2 Fc fusion, point mutation #12 R57A (human) (P18627 23-266 R57A): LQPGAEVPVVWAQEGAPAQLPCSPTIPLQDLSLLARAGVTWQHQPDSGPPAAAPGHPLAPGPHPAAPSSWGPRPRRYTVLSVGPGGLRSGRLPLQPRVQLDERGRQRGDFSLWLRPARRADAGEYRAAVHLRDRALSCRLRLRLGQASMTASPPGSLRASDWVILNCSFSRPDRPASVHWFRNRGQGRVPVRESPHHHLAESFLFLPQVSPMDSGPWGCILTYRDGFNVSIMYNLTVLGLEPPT
Chain of human LAG-3 domain 1-2 Fc fusion, point mutation #17 Q66A (human) (P18627 23-266 Q66A): as the sequence (P18627 23-266 R57A) above, with A35R, Q44A counted along it
Chain of human LAG-3 domain 1-2 Fc fusion, point mutation #43 P96A (human) (P18627 23-266 P96A): as the sequence (P18627 23-266 R57A) above, with A35R, P74A counted along it
Chain of human LAG-3 domain 1-2 Fc fusion, chimeric construct #4 (mutated region AA 40-47) (human) (P18627 other isoform, or with tags, fused parts or gaps mutant): as the sequence (P18627 23-266 R57A) above, with A18V, Q19H, P24L, T25E, A35R counted along it
Chain of human LAG-3 domain 1-2 Fc fusion, point mutation #59 Q117A (human) (P18627 23-266 Q117A): as the sequence (P18627 23-266 R57A) above, with A35R, Q95A counted along it
Chain of human LAG-3 domain 1-2 Fc fusion, point mutation #53 L109A (human) (P18627 23-266 L109A): as the sequence (P18627 23-266 R57A) above, with A35R, L87A counted along it
Chain of human LAG-3 domain 1-2 Fc fusion, point mutation #49 G105A (human) (P18627 23-266 G105A): as the sequence (P18627 23-266 R57A) above, with A35R, G83A counted along it
Chain of human LAG-3 domain 1-2 Fc fusion, point mutation #54 R110A (human) (P18627 23-266 R110A): as the sequence (P18627 23-266 R57A) above, with A35R, R88A counted along it
Chain of human LAG-3 domain 1-2 Fc fusion, point mutation #21 A74S (human) (P18627 23-266 A74S): as the sequence (P18627 23-266 R57A) above, with A35R, A52S counted along it
Chain of human LAG-3 domain 1-2 Fc fusion, point mutation #79 S159A (human) (P18627 23-266 S159A): as the sequence (P18627 23-266 R57A) above, with A35R, S137A counted along it
Chain of human LAG-3 domain 1-2 Fc fusion, point mutation #75 R141A (human) (P18627 23-266 R141A): as the sequence (P18627 23-266 R57A) above, with A35R, R119A counted along it
Chain of human LAG-3 domain 1-2 Fc fusion, point mutation #69 R129A (human) (P18627 23-266 R129A): as the sequence (P18627 23-266 R57A) above, with A35R, R107A counted along it
Chain of human LAG-3 domain 1-2 Fc fusion, chimeric construct #27 (mutated region AA 161-166) (human) (P18627 other isoform, or with tags, fused parts or gaps mutant): as the sequence (P18627 23-266 R57A) above, with A35R, R139S, L144V counted along it
Chain of human LAG-3 domain 1-2 Fc fusion, point mutation #40 G93A (human) (P18627 23-266 G93A): as the sequence (P18627 23-266 R57A) above, with A35R, G71A counted along it
Chain of human LAG-3 domain 1-2 Fc fusion, point mutation #16 H65A (human) (P18627 23-266 H65A): as the sequence (P18627 23-266 R57A) above, with A35R, H43A counted along it
Chain of human LAG-3 domain 1-2 Fc fusion, point mutation #31 P84A (human) (P18627 23-266 P84A): as the sequence (P18627 23-266 R57A) above, with A35R, P62A counted along it
Chain of human LAG-3 domain 1-2 Fc fusion, chimeric construct #7 (mutated region AA 53-60) (human) (P18627 other isoform, or with tags, fused parts or gaps mutant): as the sequence (P18627 23-266 R57A) above, with L31P, S32N, L33F, A35R, A37G, G38W counted along it
Chain of human LAG-3 domain 1-2 Fc fusion, point mutation #24 G77A (human) (P18627 23-266 G77A): as the sequence (P18627 23-266 R57A) above, with A35R, G55A counted along it

For Fab fragment of 25F7-Lag3.5 analogue, the KD mutant/KD wild type [1] was 0.8 fold, the KD mutant/KD wild type [2] was 0.9 fold and the KD mutant/KD wild type [3] was 1 fold. For the same substance, the KD mutant/KD wild type [4] was 1.1 fold, the KD mutant/KD wild type [5] was 0.9 fold and the KD mutant/KD wild type [6] was 1.3 fold. The KD mutant/KD wild type [7] was 0.7 fold, the KD mutant/KD wild type [8] was 0.7 fold and the KD mutant/KD wild type [9] was 0.8 fold. It also gave a KD mutant/KD wild type [10] of 1 fold, a KD mutant/KD wild type [11] of 0.9 fold and a KD mutant/KD wild type [12] of 1 fold. It also gave a KD mutant/KD wild type [13] of 0.7 fold, a KD mutant/KD wild type [14] of 0.7 fold and a KD mutant/KD wild type [15] of 1.2 fold. For the same substance, the KD mutant/KD wild type [16] was 0.8 fold, the KD mutant/KD wild type [17] was 1.4 fold and the KD mutant/KD wild type [18] was 1 fold. It also gave a KD mutant/KD wild type [19] of 0.8 fold, a KD mutant/KD wild type [20] of 0.6 fold and a KD mutant/KD wild type [21] of 0.8 fold. It also gave a KD mutant/KD wild type [22] of 1.2 fold, a KD mutant/KD wild type [23] of 0.9 fold and a KD mutant/KD wild type [24] of 1.7 fold. It also gave a KD mutant/KD wild type [25] of 0.9 fold, a KD mutant/KD wild type [26] of 0.9 fold and a KD mutant/KD wild type [27] of 1 fold. For the same substance, the KD mutant/KD wild type [28] was 0.8 fold, the KD mutant/KD wild type [29] was 1.4 fold and the KD mutant/KD wild type [30] was 0.8 fold. It also gave a KD mutant/KD wild type [31] of 6.2 fold, a KD mutant/KD wild type [32] of 0.8 fold and a KD mutant/KD wild type [33] of 1.3 fold.

Reference: patent US20220363757A1
